From the supplement of paper PMC10567573 come the findings set out here.

The data set in a line: protein stability index of a GFP-peptide fusion (GPS, HEK-293T) (PSI 1-6); higher = more stable.
Setting [1] is: treatment: DMSO, c terminus: a fixed tail appended.
Where [2] appears, read: treatment: MLN4924 1 uM, 8 h, c terminus: a fixed tail appended.

± gives the standard deviation.
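Further: 24-mer peptide tiles fused after GFP, lentivirally expressed, FACS-sorted into six equal bins by GFP/DsRed ratio, decoded by Illumina sequencing, PSI is the read-weighted mean bin number.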

On to LENLCENASTLRTINIKCHVHDPH [FBXO39], for which the protein stability index under setting [1] came out at 3.59 ± 0.27 and the protein stability index under setting [2] amounted to 3.59 ± 0.036. For RNGAVRRFGQTIQSFTLRGDHRSP [NET1], in that order: 3.36 ± 0.31 and 3.49 ± 0.13. For KSAAMLAVFAVSAVVHEYALAVCL [SOAT1], the protein stability index was determined as 3.22 ± 0.64 under setting [1] and 3.32 ± 0.54 under setting [2]. For VLMVGPNFRVGKKIGCGNFGELRL [CSNK1G1], in that order: 2.42 ± 0.053 and 2.69 ± 0.61. In the same order, the values of PRNKTENGLTPKKKIQVNSKPSIQ [ATF6] are 4.24 ± 0.31 and 3.96 ± 0.17.

With LLECYIQYHHSKIRNRGYNLIYRS [TMEM192], the protein stability index is, setting by setting: under setting [1], 2.71 ± 0.5; under setting [2], 2.73 ± 0.6.

Sequence LPPDALIIEYRGKFMLREQFEANG [KMT2E] displayed a protein stability index under setting [1] of 2.57 ± 0.31 and a protein stability index under setting [2] of 2.63 ± 0.18. For PTPDDHVFRWLAYSYASTHRLMTD [CPXM2], in that order: 2.64 ± 0.49 and 2.62 ± 0.59. For ADIISTVEFNHTGELLATGDKGGR [PPP2R2C], in that order: 4.52 ± 0.42 and 4.66 ± 0.44. In the same order, the values of CTDHELENHSMYCVQCKMPVCYQC [TRIM9] are 4.23 ± 0.23 and 4.33 ± 0.36. Take YLPPERIREKSRLFDTKHDVYSFA [RIPK4]: the protein stability index is 2.62 ± 0.24 under setting [1] and 2.72 ± 0.25 under setting [2]. For MDSGCWLFGGEFEDSVFEERPERR [C8orf76], in that order: 4.06 ± 0.33 and 4.29 ± 0.27. For KECVSILPRKESPSVRSSKDGKLL [TNFSF13B], in that order: 4.53 ± 0.11 and 4.56 ± 0.091. In the same order, the values of LSLRQTGSPGMIYSTRYGSPKRQL [KCNAB2] are 2.98 ± 0.51 and 3.17 ± 0.31. Sequence PYTPSPSSSRPISPGLSYASHTVG [CCDC6] registered a protein stability index under setting [1] of 3.84 ± 0.17 and a protein stability index under setting [2] of 3.69 ± 0.19. For LPSVTDIRRPRLYLLQWLKSDKAL [PLK2], in that order: 2.33 ± 0.24 and 2.36 ± 0.49. In the same order, the values of YSDRTNIISKPVPQTLIMAYDYAK [FEM1C] are 2.36 ± 0.24 and 2.49 ± 0.41.

Regarding RRMFSSLFQFSNCSQGQQLATFSS [CCDC3], the protein stability index runs as follows: under setting [1], 2.31 ± 0.2; under setting [2], 2.34 ± 0.98. As for YYRGFTLFQTHENREHLVMMEKIL [CLK3], the protein stability index turned out to be 2.31 ± 0.31 under setting [1] and 2.34 ± 0.37 under setting [2]. In the same order, the values of QPYPLPHVRHMAYQLCHALRFLHE [CLK3] are 2.34 ± 0.1 and 2.1 ± 0.23. For MLSHDNITWIAGAVTKDFKLTDKH [ACSBG2], in that order: 2.66 ± 0.42 and 2.86 ± 0.3. In the same order, the values of TAISSFTRHVFTCGRRGIKVWSLT [TLE6] are 2.15 ± 0.47 and 2.16 ± 0.44. For GYSGTSDRIRFTVNRRISIVGFGL [BTBD1], the protein stability index is, setting by setting: under setting [1], 2.83 ± 0.27; under setting [2], 2.87 ± 0.36.

The sequence YSFGSGGGYGSSFGGVDGLLAGGE [KRT17] registered a protein stability index under setting [1] of 2.84 ± 0.13 and a protein stability index under setting [2] of 2.9 ± 0.098. In the same order, the values of VFISSYMVLAPVFGYLGDRYNRKY [SPNS1] are 3.16 ± 0.49 and 2.87 ± 0.62.

Take DQNASTHTPQSSVKTSVPSSKSSG [CLINT1]: the protein stability index under setting [1] turned out to be 5.02 ± 0.24 and the protein stability index under setting [2] was 5.2 ± 0.14. In the same order, the values of FAPLWEVFRVSSDKLALCHLELTR [FCHO1] are 2.68 ± 0.36 and 2.52 ± 0.29.

Regarding NTEVVQVAAGRTQKAGVTRSGRLI [NEK8], the protein stability index reads like this: under setting [1], 4.32 ± 0.21; under setting [2], 4.4 ± 0.16. In the same order, the values of LEALIDTIQKQLKDHSCKDNIREA [EFHC1] are 3.55 ± 0.21 and 3.65 ± 0.25. For GFALNPDKKTCTKIDYCASSNHGC [MATN2], in that order: 3.53 ± 0.31 and 3.57 ± 0.64. In the same order, the values of LGVIQRDLAKTGCVDLTITNLLEG [AUP1] are 2.52 ± 0.18 and 2.61 ± 0.46. Turning to YSYVVSRPQPRGLLGWGYYLIMLP [FAF2], the protein stability index came to 2.89 ± 0.57 under setting [1] and 2.16 ± 0.37 under setting [2]. For the sequence KLPLPIALRSHLKSFSMANGLNAR [RAB40B], the protein stability index under setting [1] worked out at 2.41 ± 0.23 and the protein stability index under setting [2] came out at 2.46 ± 0.19. Consider ETVYAAYLPKNTHPFLYLSLEISP [MLH1], for which the protein stability index under setting [1] was found to be 2.82 ± 0.51. With VIAKPSELTSVTAWMLCKLLDKAG [ALDH8A1], the protein stability index is, setting by setting: under setting [1], 2.3 ± 0.2; under setting [2], 2.3 ± 0.23. In the same order, the values of LSIVLERMRYEGVVDIFQTVKMLR [PTPRD] are 2.1 ± 0.48 and 2.42 ± 0.58. Regarding LLTITKAHSNAISNCCFTFSGHFL [WDR88], the protein stability index under setting [1] amounted to 3.12 ± 1.1 and the protein stability index under setting [2] amounted to 2.59 ± 0.48. For TDLEMQIEGLKEELAYLRKNHEEE [KRT16], in that order: 5.24 ± 0.098 and 5.45 ± 0.23. Take EMLTGQERVALANRKRECGNAHYQ [FKBP8]: the protein stability index stood at 3.71 ± 0.23 under setting [1] and 3.86 ± 0.27 under setting [2]. For NRMHESMKLFDSICNNKWFTDTSI [GNAI1], in that order: 2.38 ± 0.27 and 2.33 ± 0.45. Regarding GGRGVSTCSTRFVSGGSAGGYGGG [KRT13], the protein stability index was found to be 3.77 ± 0.41 under setting [1] and 3.97 ± 0.15 under setting [2]. For GSLRTLELGSESQGASESQAPGEE [HDAC6], in that order: 5.52 ± 0.29 and 5.58 ± 0.22. For DEKQQEANETLAEMEEELRYAPLS [VTI1B], in that order: 5.55 ± 0.15 and 5.55 ± 0.2. For MFGLVIPLGVLQAIAMYFLPPSPR [SLC2A12], in that order: 2.46 ± 0.64 and 2.53 ± 0.64.

For the sequence ERLASANLRVLVDCILRDTSEDLR [TEKT4], the protein stability index was found to be 2.21 ± 0.48 under setting [1] and 2.05 ± 0.15 under setting [2].

Take LLQQNKSIQSLTLEWNSLGTWDDA [LRRC45]: the protein stability index reads like this: under setting [1], 2.65 ± 0.094; under setting [2], 2.64 ± 0.42.

As to FQSHEPEFDYLKSLEIEEKINKIR [PPP2R2B], the protein stability index is 3.26 ± 0.36 under setting [1] and 3.56 ± 0.31 under setting [2].

Take PSDPPAMSPGPLDALSSPTSVQEA [C2CD2L]: the protein stability index turned out to be 5.54 ± 0.18 under setting [1] and 5.42 ± 0.2 under setting [2].

Turning to GGVLIDRYGRRTAIILSSCLLGLG [SLC2A12], the protein stability index runs as follows: under setting [1], 2.86 ± 1; under setting [2], 2.74 ± 1.3.

For HHAKDSEGVEIMLGVCASGLLIYR [EPB41L3], the protein stability index came out at 2.12 ± 0.69 under setting [1] and 2.14 ± 0.61 under setting [2].

Turning to LLLPGLNQHGIILKYIGMAKREIN [ARL6IP1], the protein stability index reads like this: under setting [1], 2.42 ± 0.68; under setting [2], 2.38 ± 0.97. In the same order, the values of PDLVKGPWTKEEDQKVIELVKKYG [MYBL2] are 3.86 ± 0.22 and 3.99 ± 0.21. For KVIYDFIEKTGGVEAVKNELRRQA [WASL], in that order: 2.13 ± 0.41 and 2.28 ± 0.23. In the same order, the values of LLYLLHILLLDGAAWLTLWVFGTS [FADS1] are 3.38 ± 0.24 and 2.49 ± 0.25. In the case of IITIGYNVYHSYDLPWFRTLSWYF [CDS2], the protein stability index was found to be 3.08 ± 0.23 under setting [1] and 3.2 ± 0.27 under setting [2]. Consider ELSNILNLSYKQVKTWFQNQRMKS [NANOGP8], for which the protein stability index came out at 2.63 ± 0.49 under setting [1] and 2.38 ± 0.43 under setting [2].

As for RIDSQFLIGDTLLVAPVLEPGKQE [MYORG], the protein stability index reads like this: under setting [1], 3.77 ± 0.18; under setting [2], 3.81 ± 0.26. For ANPSIRDKEGYNSIHYAAAYGHRQ [ANKRD44], in that order: 3.52 ± 0.22 and 3.6 ± 0.3. For CNTFVYSSSKGTIRLCDMRASALC [PPP2R2B], the protein stability index came out at 2.5 ± 0.53 under setting [1] and 2.34 ± 0.51 under setting [2]. For SQAHSTLKLANHQRPVSRQVTCLR [TRAF3IP2], in that order: 3.5 ± 0.21 and 3.61 ± 0.44. KWTGDFFNKGIYDIHVGLRGVPLL [CLCN6] returned a protein stability index under setting [1] of 2.86 ± 0.8 and a protein stability index under setting [2] of 2.24 ± 0.44. In the same order, the values of REHELLCRADHGLLLERAAAGSPR [ISL2] are 3.82 ± 0.31 and 3.89 ± 0.062. In the same order, the values of YVSLGRLGAAKGALHPGCFAPLHP [CEBPB] are 3.44 ± 0.94 and 2.73 ± 0.17.

Consider DESGYVSGYKHAGTYDQKVQGGK [TPPP], for which the protein stability index was 5.24 ± 0.15 (treatment: DMSO, c terminus: native) and 5.4 ± 0.24 (treatment: MLN4924 1 uM, 8 h, c terminus: native). For GGLNRETNEKMLKAVFGKHGPISE [RBMY1A1], the protein stability index runs as follows: under setting [1], 3.69 ± 0.28; under setting [2], 3.81 ± 0.19. For LTVRLHTQSVSECITEDGRTVAVG [PWWP2B], in that order: 3.2 ± 0.33 and 3.15 ± 0.044. Turning to QAMEEDLIVGLQGMDLNLEAEALA [HDAC6], the protein stability index under setting [1] was 4.8 ± 0.23 and the protein stability index under setting [2] turned out to be 4.92 ± 0.25. For SLQDASRGDPAHAGLAELGHRLAQ [PBXIP1], in that order: 4.33 ± 0.34 and 4.38 ± 0.27. As for TGPRLSFPLLPDHATALVEAFRLK [PPEF2], the protein stability index came out at 2.89 ± 0.23 under setting [1] and 3.07 ± 0.19 under setting [2]. In the same order, the values of VHRQLGEANEEFALRVQQLVAKEL [AUP1] are 3.79 ± 0.076 and 3.88 ± 0.1. The sequence TCGEGYQFRVVRCWKMLSPGFDSS [ADAMTSL2] showed a protein stability index under setting [1] of 2.77 ± 0.43 and a protein stability index under setting [2] of 2.28 ± 0.38. In the same order, the values of RHRSADVLGVADGVGGWRDYGVDP [PPTC7] are 4.14 ± 0.39 and 4.07 ± 0.48.
